Experimental data: article PMC3900260
Like-named read-outs stand apart in the source and are kept apart here.

apurinic/apyrimidinic endonuclease 1 (APE1): K6R/K7R
no change: enzymatic_activity (acetylation at K6) | expression_or_secretion (acetylation at K6) | enzymatic_activity (acetylation at K7) | expression_or_secretion (acetylation at K7)
